Experimental findings from patent US20210024640A1 are described below.

In assay [1] the target is OX40 on HT1080 OX40 stable cell line (Homo sapiens (Human)) (UniProt P43489).
Assay [2] shares this target. This is another data set of the same source.

Sequence of OX40 on HT1080 OX40 stable cell line (Homo sapiens (Human)) (P43489 29-277): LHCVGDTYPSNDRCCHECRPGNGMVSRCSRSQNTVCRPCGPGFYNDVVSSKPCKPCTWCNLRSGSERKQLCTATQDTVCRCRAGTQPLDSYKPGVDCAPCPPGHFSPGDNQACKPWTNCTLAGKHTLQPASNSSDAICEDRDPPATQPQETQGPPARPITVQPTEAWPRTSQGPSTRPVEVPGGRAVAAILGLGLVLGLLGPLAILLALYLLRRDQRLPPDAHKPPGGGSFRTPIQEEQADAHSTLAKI

OX40L-Fc (Fc fusion) showed an EC50 (read off the curve), IL-8 secretion, agonist assay control in assay [1] of 0.3 nM. In assay [2], this substance came in with an EC50 (read off the curve), IL-8 secretion, antagonist assay control (ligand titration) of 0.3 nM.
